Measured values taken from US20090209453A1 (UNIVERSITY OF MEDICINE AND DENTISTRY OF NEW JERSEY, published 2009).

B1: pMB2472+pMB2672 heterodimer (crosslink α86-β106) (ligand)
alpha: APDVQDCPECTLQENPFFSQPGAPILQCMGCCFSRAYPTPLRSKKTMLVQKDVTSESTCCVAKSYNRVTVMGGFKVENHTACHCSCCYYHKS
beta: SKEPLRPRCRPINATLAVEKEGCPVCITVNTTICAGYCPTMTRVLQGVLPALPQVVCNYRDVRFESIRLPGCPRGVNPVVSYAVALSCQCALCRRSTTDCGGPKDC
modifications: Intersubunit disulfide between alpha Cys86 and beta Cys106 (the beta C-terminus). N-linked glycans remain, except at alpha position 52 (N52D). Beta Cys26 is free.
notes: The text says that pMB1244 or pMB2472 was the α-subunit construct; also called pMB2472 and pMB2672
B2: pRM917+pMB2545 crosslinked heterodimer (ligand)
alpha: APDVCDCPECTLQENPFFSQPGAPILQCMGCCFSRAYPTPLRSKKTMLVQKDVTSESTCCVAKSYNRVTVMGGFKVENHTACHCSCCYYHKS
beta: SRPCCRPINATLAVEKEGCPVAITVNTTICAGYCPTMTRVLQGVLPALPQVVCNYRDVRFESIRLPGCPRGVNPVVSYAVALSCQCALCRRSTTDCGC
modifications: Potential intersubunit disulfides α5-β8 and α86-β102; N-linked glycans on both subunits (none at α52).
notes: Potential disulfides α5-β8 and α86-β102; also called pRM917 and pMB2545; copies: 1 + 1
B3: pMB2472+pMB2673 heterodimer (crosslink α86-β108) (ligand)
alpha: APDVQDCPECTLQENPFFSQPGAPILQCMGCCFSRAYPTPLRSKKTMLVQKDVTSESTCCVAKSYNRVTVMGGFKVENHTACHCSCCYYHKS
beta: SKEPLRPRCRPINATLAVEKEGCPVCITVNTTICAGYCPTMTRVLQGVLPALPQVVCNYRDVRFESIRLPGCPRGVNPVVSYAVALSCQCALCRRSTTDCGGPKDHPC
modifications: Intersubunit disulfide between alpha Cys86 and beta Cys108 (the beta C-terminus). N-linked glycans remain, except at alpha position 52 (N52D). Beta Cys26 is free.
notes: The text says that pMB1244 or pMB2472 was the α-subunit construct; also called pMB2472 and pMB2673

What was measured:
rat LH receptor [1] = biological target: T1, rat LH receptor (rat, UniProt P16235 27-700); assay: 125I-hCG competition on rat LH receptors
T1 construct: whole, on cells; CHO cells engineered to (over)express the rat LH receptor; also called rat lutropin receptor
T1 sequence (P16235 27-700): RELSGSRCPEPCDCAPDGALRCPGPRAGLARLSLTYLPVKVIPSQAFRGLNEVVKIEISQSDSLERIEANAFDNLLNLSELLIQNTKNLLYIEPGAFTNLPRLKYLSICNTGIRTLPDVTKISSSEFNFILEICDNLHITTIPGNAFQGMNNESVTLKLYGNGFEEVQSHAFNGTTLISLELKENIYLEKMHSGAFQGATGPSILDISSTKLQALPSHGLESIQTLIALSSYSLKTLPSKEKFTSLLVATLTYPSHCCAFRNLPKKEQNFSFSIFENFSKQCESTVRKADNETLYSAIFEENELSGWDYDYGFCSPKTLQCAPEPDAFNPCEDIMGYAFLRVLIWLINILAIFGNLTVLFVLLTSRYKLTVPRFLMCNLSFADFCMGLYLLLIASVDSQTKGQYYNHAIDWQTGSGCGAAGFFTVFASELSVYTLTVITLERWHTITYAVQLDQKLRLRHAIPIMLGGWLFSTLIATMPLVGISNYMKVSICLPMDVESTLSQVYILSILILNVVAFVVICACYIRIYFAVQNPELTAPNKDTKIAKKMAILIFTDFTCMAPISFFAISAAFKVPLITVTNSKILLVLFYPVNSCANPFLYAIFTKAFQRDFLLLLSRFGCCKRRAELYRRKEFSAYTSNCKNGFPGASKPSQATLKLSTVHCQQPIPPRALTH

rat LH receptor [2] = biological target: T1, rat LH receptor; assay: competition with radioiodinated hCG for rat LH receptors

Row | Binder | binding result (rat LH receptor [1]) | binding result (rat LH receptor [2])
1 | B1 | binds | –
2 | B2 | – | binds
3 | B3 | binds | –
